Assay results: article PMC5623874 (Frontiers in Immunology, 2017)

Experiments:
[1] = molecular target: T1, Marburgvirus (Marburg Musoke) nucleoprotein, polymeric (Marburg virus, Musoke, UniProt P27588); assay: ELISA; conditions: both partners purified
T1 construct: source: HEK 293T, transient transfection, purified (CsCl gradient)

[2] = molecular target: the molecule itself; assay: transmission electron microscopy of HA-NP and sdAb mixtures

Binder | binding result [1] | binding result [2]
anti-MARV NP sdAb A monomer (pecan126) (VHH, also called anti-MARV sdAb A; source: E. coli HBV88 periplasm, purified (IMAC, gel filtration)) VHH: EVKLQESGGGLVQAGESLRLSCAVPPEVFDIRTVAWYRQVPLGKGRELLSSITPWNKTTYEDSVKDRFTISRDNAKYTVYLQMNDLKPEDTAVYYCAQGWGIASMRYWGQGTQVTVSS | binds | 
anti-MARV NP sdAb B monomer (pecan126) (VHH, also called anti-MARV sdAb B; source: E. coli HBV88 periplasm, purified (IMAC, gel filtration)) VHH: KVQLQESGGGLVQAGGSLRLSCAASGGTFSINTLGWYRRAPGKEREFVARISSGGITRYADSVKGRFTISRDNGKNTVYLDMNSLKPEDTAVYYCMYRNWGGGLDVYWGQGTQVTVSS | binds | 
HA-tagged Marburgvirus (Marburg Musoke) nucleoprotein, polymeric (natural protein, also called MARV HA-NP; HA-NP) MDLHSLLELGTKPTAPHVRNKKVILFDTNHQVSICNQIIDAINSGIDLGDLLEGGLLTLCVEHYYNSDKDKFNTSPVAKYLRDAGYEFDVIKNADATRFLDVSPNEPHYSPLILALKTLESTESQRGRIGLFLSFCSLFLPKLVVGDRASIEKALRQVTVHQEQGIVTYPNHWLTTGHMKVIFGILRSSFILKFVLIHQGVNLVTGHDAYDSIISNSVGQTRFSGLLIVKTVLEFILQKTDSGVTLHPLVRTSKVKNEVASFKQALSNLARHGEYAPFARVLNLSGINNLEHGLYPQLSAIALGVATAHGSTLAGVNVGEQYQQLREAAHDAEVKLQRRHEHQEIQAIAEDDEERKILEQFHLQKTEITHSQTLAVLSQKREKLARLAAEIENNIVEDQGFKQSQNRVSQSFLNDPTPVEVTVQARPMNRPTALPPPVDDKIEHESTEDSSSSSSFVDLNDPFALLNEDEDTLDDSVMIPGTTSREFQGIPEPPRQSQDLNNSQGKQEDESTNRIKKQFLRYQELPPVQEDDESEYTTDSQESIDQPGSDNEQGVDLPPPPLYAQEKRQDPIQHPAANPQDPFGSIGDVNGDILEPIRSPSSPSAPQEDTRMREAYELSPDFTNDEDNQQNWPQRVVTKKGRTFLYPNDLLQTNPPESLITALVEEYQNPVSAKELQADWPDMSFDERRHVAMNL |  | binds
anti-MARV NP sdAb C monomer (pecan126) (VHH, also called anti-MARV sdAb C; source: E. coli HBV88 periplasm, purified (IMAC, gel filtration)) VHH: KVQLQESGGGLVQVGGSLRLSCKASGFTFRSSAMGWYRRAPGKQRELVASLTTTGTADYGDFVKGRFTISRDNAENTVDLHMNSLKPEDTAVYYCHEDPYGMESLRYWGQGTQVTVSS | binds | 
